Test results published in publication PMC12478261.

T1: mCRP (monomeric C-reactive protein) (UniProt P02741 19-224)
T1 sequence: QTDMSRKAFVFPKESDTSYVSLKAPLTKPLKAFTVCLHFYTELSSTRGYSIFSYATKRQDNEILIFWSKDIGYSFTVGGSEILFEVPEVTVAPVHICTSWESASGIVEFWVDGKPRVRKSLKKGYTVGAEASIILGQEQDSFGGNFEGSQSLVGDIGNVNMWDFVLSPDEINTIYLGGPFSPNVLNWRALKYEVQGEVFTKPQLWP

T2: nCRP (native pentameric C-reactive protein) (UniProt P02741 19-224)
T2 sequence: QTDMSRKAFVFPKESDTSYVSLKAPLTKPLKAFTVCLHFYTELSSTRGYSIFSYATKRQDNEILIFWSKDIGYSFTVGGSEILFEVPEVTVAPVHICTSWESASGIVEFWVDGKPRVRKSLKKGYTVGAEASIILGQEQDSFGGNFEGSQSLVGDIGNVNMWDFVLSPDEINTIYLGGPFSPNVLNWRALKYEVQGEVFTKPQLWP


Tests used:
[1] = molecular target: T1, mCRP (monomeric C-reactive protein); test: SPR
[2] = molecular target: T2, nCRP (native pentameric C-reactive …); test: bead pull-down, Qubit ssDNA quantification

Row | Binder | Kd [1] [nM] | binding result [2]
1 | CCAATGGCCCTAGGGCTGCAAATCGCTGCC (ssDNA) [ApmCRP3] | 400 | 
2 | TTGACCCTTTAAGGTCGTCCGGAAACGGGC (ssDNA) [ApmCRP4] |  | no binding
